{
  "source": "patent US20040110287A1",
  "about": "“Multi-step method for the differentiation of insulin positive, glucose responsive cells” (ES Cell International Pte Ltd., priority 2002, published 2004)",
  "molecules": {"B1": {"name": "follistatin (protein, UniProt P19883 30-344, looked up)", "Follistatin": "GNCWLRQAKNGRCQVLYKTELSKEECCSTGRLSTSWTEEDVNDNTLFKWMIFNGGAPNCIPCKETCENVDCGPGKKCRMNKKNKPRCVCAPDCSNITWKGPVCGLDGKTYRNECALLKARCKEQPELEVQYQGRCKKTCRDVFCPGSSTCVVDQTNNAYCVTCNRICPEPASSEQYLCGNDGVTYSSACHLRKATCLLGRSIGLAYEGKCIKAKSCEDIQCTGGKKCLWDFKVGRGRCSLCDELCPDSKSDEPVCASDNATYASECAMKEAACSSGVLLEVKHSGSCNSISEDTEEEEEDEDQDYSFPISSILEW"}},
  "system": "pdx1+ cells",
  "experiment": "Expansion of pdx1+ cells in non-adherent clusters of human pancreatic duct cells",
  "type": "cell-based",
  "protocol": "Pancreatic duct cells were isolated from human donor tissue, using the methods described in detail in Example 2. The cells were plated as non-adherent cell clusters in DMEM-F12 (pH 7.4), 2 mM glutamine, 1% penicillin-streptomycin, 2% B27 (Life Sciences Technologies) and 8 mM HEPES. Following 1-4 days in culture, the media was changed to DMEM-F12 (pH 6.9-7.1), 2 mM glutamine, 1% penicillin-streptomycin, and 2% B27 (Life Sciences Technologies). This media was supplemented with the following four factors: dexamethasone (10^−7-10^−9 M), forskolin (10 μM), insulin (20 μg/ml) and FGF-18 (20 ng/ml). The media was optionally supplemented with heparin which is often used to enhance the effects of FGF. The cells were cultured for a number of days in this supplemented media which was changed daily.\nFollowing approximately one day in culture, Pdx1+ cells (a marker of pancreatic progenitor cells) began appearing on the surface of the non-adherent clusters. The size and number of Pdx1+ cells continues to increase for approximately 12 days. Following 8 to 12 days in culture under expansion conditions, non-adherent cell clusters containing an increased number of Pdx1+ cells were subjected to a differentiation protocol to produce insulin+, glucose responsive cell clusters.\nThis effect on pdx1 expression was further augmented if the follistatin-related factor follistatin or a combination of follistatin and the GLP-1 agonist exendin-4 was added to the above list of factors used to supplement the acidic culture medium. Briefly, cultures expanded in forskolin (a cAMP elevating agent), dexamethasone (a corticosteroid), insulin, FGF18 (a FGF family member), heparin (known to potentiate the activity of FGF family members), and follistatin (a follistatin-related factor) contained approximately 281 fold more pdx1+ cells than cells differentiated in the absence of the expansion protocol. […]",
  "data": [
    {"molecule": "B1", "values": [
      {"measurement": "fold more pdx1+ cells than cells differentiated in the absence of the expansion protocol", "setting": "4 days basal medium, 4 days acidic expansion medium, before differentiation", "value": "approximately 281 fold"},
      {"measurement": "fold increase in total islet equivalents (IEs) versus multistep differentiation protocol alone", "setting": "FIG. 5", "value": 281, "unit": "fold"},
      {"measurement": "pdx1 expression versus expansion medium alone", "setting": "FIG. 6 and FIG. 7, added to expansion medium", "value": "increase in pdx1 expression"}
    ]}
  ]
}
